Data from PMC10716122.

B1: Cyclic GMP-AMP synthase (cGAS), wild type, expressed in human cells [human] / TRIM41, HA-tagged [human] (parent)
chain 1: MQPWHGKAMQRASEAGATAPKASARNARGAPMDPTESPAAPEAALPKAGKFGPARKSGSRQKKSAPDTQERPPVRATGARAKKAPQRAQDTQPSDATSAPGAEGLEPPAAREPALSRAGSCRQRGARCSTKPRPPPGPWDVPSPGLPVSAPILVRRDAAPGASKLRAVLEKLKLSRDDISTAAGMVKGVVDHLLLRLKCDSAFRGVGLLNTGSYYEHVKISAPNEFDVMFKLEVPRIQLEEYSNTRAYYFVKFKRNPKENPLSQFLEGEILSASKMLSKFRKIIKEEINDIKDTDVIMKRKRGGSPAVTLLISEKISVDITLALESKSSWPASTQEGLRIQNWLSAKVRKQLRLKPFYLVPKHAKEGNGFQEETWRLSFSHIEKEILNNHGKSKTCCENKEEKCCRKDCLKLMKYLLEQLKERFKDKKHLDKFSSYHVKTAFFHVCTQNPQDSQWDRKDLGLCFDNCVTYFLQCLRTEKLENYFIPEFNLFSSNLIDKRSKEFLTKQIEYERNNEFPVFDEF
chain 2: MAAVAMTPNPVQTLQEEAVCAICLDYFTDPVSIGCGHNFCRVCVTQLWGGEDEEDRDELDREEEEEDGEEEEVEAVGAGAGWDTPMRDEDYEGDMEEEVEEEEEGVFWTSGMSRSSWDNMDYVWEEEDEEEDLDYYLGDMEEEDLRGEDEEDEEEVLEEVEEEDLDPVTPLPPPPAPRRCFTCPQCRKSFPRRSFRPNLQLANMVQVIRQMHPTPGRGSRVTDQGICPKHQEALKLFCEVDEEAICVVCRESRSHKQHSVVPLEEVVQEYKAKLQGHVEPLRKHLEAVQKMKAKEERRVTELKSQMKSELAAVASEFGRLTRFLAEEQAGLERRLREMHEAQLGRAGAAASRLAEQAAQLSRLLAEAQERSQQGGLRLLQDIKETFNRCEEVQLQPPEVWSPDPCQPHSHDFLTDAIVRKMSRMFCQAARVDLTLDPDTAHPALMLSPDRRGVRLAERRQEVADHPKRFSADCCVLGAQGFRSGRHYWEVEVGGRRGWAVGAARESTHHKEKVGPGGSSVGSGDASSSRHHHRRRRLHLPQQPLLQREVWCVGTNGKRYQAQSSTEQTLLSPSEKPRRFGVYLDYEAGRLGFYNAETLAHVHTFSAAFLGERVFPFFRVLSKGTRIKLCP

Variants of: B1
Experiment: co-IP (IP: GFP, blot cGAS-HA), band intensity printed under blot
Details: with TRIM41, HA-tagged [human]; HEK293T cells; TRIM41-GFP co-expressed; 100 μg/mL etoposide for 4 h; parent: 1

Variant | ratio to parent
chain 1 S305A | 0.51
chain 1 MQPWHGKAMQRASEAGATAPKASARNARGAPMDPTESPAAPEAALPKAGKFGPARKSGSRQKKSAPDTQERPPVRATGARAKKAPQRAQDTQPSDATSAPGAEGLEPPAAREPALSRAGACRQRGARCSTKPRPPPGPWDVPSPGLPVSAPILVRRDAAPGASKLRAVLEKLKLSRDDISTAAGMVKGVVDHLLLRLKCDSAFRGVGLLNTGSYYEHVKISAPNEFDVMFKLEVPRIQLEEYSNTRAYYFVKFKRNPKENPLSQFLEGEILSASKMLSKFRKIIKEEINDIKDTDVIMKRKRGGSPAVTLLISEKISVDITLALESKSSWPASTQEGLRIQNWLSAKVRKQLRLKPFYLVPKHAKEGNGFQEETWRLSFSHIEKEILNNHGKSKTCCENKEEKCCRKDCLKLMKYLLEQLKERFKDKKHLDKFSSYHVKTAFFHVCTQNPQDSQWDRKDLGLCFDNCVTYFLQCLRTEKLENYFIPEFNLFSSNLIDKRSKEFLTKQIEYERNNEFPVFDEF [chain 1 S120A] | 0.68
